Assay [1] has as its target T1, Recombinant human IL-5 (human, UniProt P05113 20-134, 125I label (Bolton-Hunter reagent) in the receptor binding inhibition assay and the colony lifts; residues not stated).
T1 construct: also called human interleukin-5; hIL-5
The experiment in a line: optical biosensor (BIAcore), immobilized hIL-5, 25° C.

Assay [2] addresses T1, Recombinant human IL-5. In words: inhibition of 125I-IL-5 binding to IL-5R(α chain) from Drosophila membranes.
For assay [3], the target named is T1, Recombinant human IL-5. The experiment in a line: cell-based or functional assay.
A further assay deals with human IL-1β (human, UniProt P01584 117-269). The experiment in a line: ELISA, supernatants of the cloned lines. A general note: An ELISA detects its analyte on a solid surface through an enzyme-linked reagent.
In the next assay the target is T2, human IL-1α (human, UniProt P01583 113-271).
T2 sequence (looked up): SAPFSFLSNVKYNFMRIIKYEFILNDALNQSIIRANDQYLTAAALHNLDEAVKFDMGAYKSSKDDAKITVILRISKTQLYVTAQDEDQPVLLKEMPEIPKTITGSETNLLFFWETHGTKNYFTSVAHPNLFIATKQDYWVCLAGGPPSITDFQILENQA
In words: ELISA, supernatants of the cloned lines.

Another assay addresses T3, human M-CSF (human, UniProt P09603 33-190, limits assumed).
T3 sequence (looked up): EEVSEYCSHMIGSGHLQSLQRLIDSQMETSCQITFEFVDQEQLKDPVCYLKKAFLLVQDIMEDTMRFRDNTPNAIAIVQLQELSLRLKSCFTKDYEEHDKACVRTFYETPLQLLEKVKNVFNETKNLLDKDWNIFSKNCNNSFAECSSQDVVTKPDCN
In words: ELISA, supernatants of the cloned lines.

The target in a further assay is human TGFα (human, UniProt P01135 40-89). In words: ELISA, supernatants of the cloned lines.
The target of another assay is T4, human IL-4 (human, UniProt P05112 25-153).
T4 sequence (looked up): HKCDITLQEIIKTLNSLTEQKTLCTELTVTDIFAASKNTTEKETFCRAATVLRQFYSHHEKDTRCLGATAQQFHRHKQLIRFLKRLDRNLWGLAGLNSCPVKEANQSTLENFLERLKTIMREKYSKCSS
In words: ELISA, supernatants of the cloned lines.

Another assay has as its target human IL-8 (human, UniProt P10145 28-99, limits assumed). The experiment in a line: ELISA, supernatants of the cloned lines.
Assay [4] has as its target T1, Recombinant human IL-5. In words: cell-based or functional assay. This is another data set of the same source.
The target of assay [5] is T1, Recombinant human IL-5. The experiment in a line: colony lift assay with iodinated IL-5, chain shuffled library.

As a reminder, the Kd is the free concentration of one partner at which half of the binding sites on the other are occupied at equilibrium, for simple one-to-one binding. The term IC50 denotes the concentration needed to halve the response being measured.

B1: murine monoclonal antibody 2E3 (antibody, IgG2a, V domains shown)
VH: PGLVAPSQSLSITCTVSGFSLTSYSVHWVRQPPGKGLEWLGVIWASGGTDYNSALMSRLSISKDNSKSQVFLKLNSLQTDDAAMYYCARDPPFSLLRLDFWGQGTTLTVSS
VL: SSLSVSAGEKVTMSCKSSQSLLNSGNQKNYLAWYQQKPGQPPKLLIYGASTRESGVPDRFTGSGSGTDFTLTISSVQAEDLAVYYCQNDHSFPFTFGSGTELEIK
notes: also called mAb 2E3; hybridoma SK119-2E3.39.40.2
As for B1, the Kd with Recombinant human IL-5 [1] is 0.02 nM. In addition, in the assay with Recombinant human IL-5 [2], the IC50 amounted to 1 nM. Further, in the assay with Recombinant human IL-5 [3], the “inhibition of proliferation of murine B13 cells” value (“inhibition … of murine B13 cells” below) was above 70%. Also, the binding result with human IL-1β, in the assay with human IL-1α, with human M-CSF, in the assay with human TGFα, with human IL-4 and with human IL-8 was “no binding” each time. Besides, in the assay with Recombinant human IL-5 [4], the “100% Inhibition (pM), B13 cell proliferation” value (from here on “100% Inhibition (pM)”) amounted to 600 pM. Besides, the “Proliferation IC50 (pM), B13 cells” value in the assay with Recombinant human IL-5 [4] turned out to be 90 pM.

B2: murine monoclonal antibody 2F2 (antibody, V domains shown)
VH: PGLVAPSQSLSITCTVSGFSLTSYSVHWVRQPPGKGLEWLGVIWASGGTDYNSALMSRLSISKDNSKSQVFLKLNSLRTDDTAMYYCARDPPSSLLRLDYWGQGTTLTVSS
VL: SSLSVSAGEKVTMSCKSSQSLLNSGNQKNYLAWYQQKPGQPPKLLIYGASTRESGVPDRFTGSGSGTDFTLTISSVQAEDLAVYYCQNDHSFPFTFGSGTELEIK
notes: also called mAb 2F2; hybridoma SK119-2F2.37.80.12
Consider B2, for which, in the assay with Recombinant human IL-5 [1], the Kd came to 0.013 nM. In the assay with Recombinant human IL-5 [2], the IC50 was 1 nM. For the same molecule, the “inhibition … of murine B13 cells” value with Recombinant human IL-5 [3] was above 70%. The binding result in the assay with human IL-1β, with human IL-1α, in the assay with human M-CSF, with human TGFα, with human IL-4 and with human IL-8 was “no binding” each time. The “100% Inhibition (pM)” value with Recombinant human IL-5 [4] worked out at 340 pM. The “Proliferation IC50 (pM), B13 cells” value in the assay with Recombinant human IL-5 [4] was 150 pM.

B3: murine monoclonal antibody 2B6 (antibody, IgG1, V domains shown)
VH: QVQLKESGPGLVAPSQSLSITCTVSGFSLTSYSVHWVRQPPGKGLEWLGVIWASGGTDYNSALMSRLSISKDNSKSQVFLKLNSLQTDDTAMYYCARDPPSSLLRLDYWGQGTTLTVSS
VL: DIVMTQSPSSLSVSAGEKVTMSCKSSQSLLNSGNQKNYLAWYQQKPGQPPKLLIYGASTRESGVPDRFTGSGSGTDFTLSISSVQAEDLAVYYCQNVHSFPFTFGSGTELEIK
notes: also called mAb 2B6; murine 2B6
As for B3, the equilibrium dissociation constant (Kd) in the assay with Recombinant human IL-5 [1] was 0.022 nM. In the assay with Recombinant human IL-5 [2], the IC50 amounted to 1 nM. In addition, in the assay with Recombinant human IL-5 [3], the “inhibition … of murine B13 cells” value is above 70%. Moreover, the binding result with human IL-1β, with human IL-1α, with human M-CSF, with human TGFα, in the assay with human IL-4 and with human IL-8 was “no binding” throughout. The “100% Inhibition (pM)” value in the assay with Recombinant human IL-5 [4] was determined as 200 pM. In the assay with Recombinant human IL-5 [4], the “Proliferation IC50 (pM), B13 cells” value amounted to 70 pM.

B4: Fab 2 from the chain-shuffled library (2B6 Fd with a library light chain) (Fab, V domains shown)
VH: QVQLKESGPGLVAPSQSLSITCTVSGFSLTSYSVHWVRQPPGKGLEWLGVIWASGGTDYNSALMSRLSISKDNSKSQVFLKLNSLQTDDTAMYYCARDPPSSLLRLDYWGQGTTLTVSS
VL: ELVMTQSPSSLSVSAGEKVTMSCKSSQSLLNSGNQKNYLAWYQQKPGQPPKLLIYGASTRESGVPDRFTGSGSGTDFTLTISSVQAEDLAVYYCQNDHSYPFTFGSGTKLEIK
notes: not shown: constant part of the murine 2B6 Fd (CH1) and any tag from pMKFabGene3H
Consider B4, for which the binding result in the assay with Recombinant human IL-5 [5] is recorded as “binds”.

B5: Fab 15 from the chain-shuffled library (2B6 Fd with a library light chain) (Fab, V domains shown)
VH: QVQLKESGPGLVAPSQSLSITCTVSGFSLTSYSVHWVRQPPGKGLEWLGVIWASGGTDYNSALMSRLSISKDNSKSQVFLKLNSLQTDDTAMYYCARDPPSSLLRLDYWGQGTTLTVSS
VL: ELVMTQSPSSLSVSAGEKVTMSCKSSQSLLNSGNQKNYLAWYQQKPGQPPKLLIYGASTRESGVPDRFTGSGSGTDFTLTISSVQAEDLAVYYCQNDYSYPFTFGSGTKLEIK
notes: as for B4
Regarding B5, the binding result with Recombinant human IL-5 [5] was “binds”.

The values are drawn from patent publication US20030059429A1 (published 2003).
